{
  "source": "paper PMC7211764",
  "about": "(Biochemistry, 2019)",
  "proteins": {"B1": {"name": "A3A H29R (enzyme)", "chain": "not shown"}},
  "molecular_target": "the molecule itself",
  "experiment": "SEC",
  "data": [
    {"protein": "B1", "values": [
      {"measurement": "stoichiometry N", "result": 2}
    ]}
  ]
}
